Source: patent US20100167997A1, “METHOD FOR STIMULATION COLLAGEN SYNTHESIS AND/OR KGF EXPRESSION” (ATYR PHARMA, INC., priority 2005, published 2010)

How the values were obtained:
collagen [1] = test: RT-PCR analysis of collagen transcript in foreskin fibroblast cells; format: cell-based; details: for collagen synthesis (RT-PCR), deletion fragments, compared with C-terminal fragment SEQ ID NO: 15: 100 nM for 2 hours and 6 hours, FIG. 6; for synthesis of collagen (RT-PCR), AIMP1 fragments: 100 nM, 0, 1, 2, 4 and 6 hours, FIG. 5
Description: (§1) In order to measure the collagen transcript RNA induced by the AIMP1, foreskin fibroblast cells (5×10^4 cells/well; obtained from MTT; accession number: MC1232) were cultured in 10% serum-containing DMEM medium on a 6-well plate for 12 hours and then cultured in serum-free medium for about 3 hours. Next, the cultured cells were treated with the AIMP1 (SEQ ID NO: 1) at varying AIMP1 concentrations of 0, 20, 50, 100 and 200 nM for 6 hours (RT-PCR) or 12 hours (Western blot).
The cells treated with the AIMP1 at varying concentrations in Example <1-1> were collected and dissolved in TRIzol (invitrogen). 10% by weight of chloroform was added to the cell lysate, and mixed well. The mixture was centrifuged at 12,000 g for 15 minutes and the supernatant was collected. Ethanol was added to the collected supernatant to a final concentration of 70%. Then, the supernant was centrifuged at 26,000 g for 5 minutes and the precipitant was collected. The precipitant was dried and dissolved in sterilized distilled water, and the total RNA was extracted. 3 μg of the total RNA was used to prepare cDNA. Then, the cDNA was amplified by PCR using collagen-specific primers (SEQ ID NO: 4 and SEQ ID NO: 5). At this time, for use as a control group, the cDNA was subjected to PCR using GADPH-specific primers (SEQ ID NO: 6 and SEQ ID NO: 7). The PCR reaction consisted of: pre-denaturation of the template DNA at 95° C. for 5 min, followed by 25 cycles of 1 min at 95° C., 1 min at 52° C. and 1 min at 72° C., and then a final extension for 5 min at 72° C.
(§2) Foreskin fibroblast cells (5×10^4 cells/well) were cultured in 10% serum-containing DMEM medium on a 6-well plate for 12 hours, and then, cultured in serum-free medium for about 3 hours. Next, the cultured cells were treated with 100 nM of the AIMP1 at various time intervals (0, 2, 4, 6, 12 and 24 hours).
(§3) Foreskin fibroblast cells (5×10^4 cells/well) were cultured in 10% serum-containing DMEM medium on a 6-well plate about 12 hours, and then, cultured in serum-free medium for about 3 hours. Then, the cultured cells were treated with 100 nM of the N-terminal and C-terminal fragments of the AIMP1 prepared in Reference Example 1, at various time intervals of 0, 1, 2, 4, and 6 hours. Then, RT-PCR was performed in the same manner as in Example <1-2> using each of collagen-specific primers (SEQ ID NO: 4 and SEQ ID NO: 5), KGF-specific primers (SEQ ID NO: 8 and SEQ ID NO: 9) and GADPH-specific primers (SEQ ID NO: 6 and SEQ ID NO: 7).
(§4) Foreskin fibroblast cells (5×10^4 cells/well) were cultured in 10% serum-containing DMEM medium on a 6-well plate for 12 hours and then cultured in serum-free medium for about 3 hours. Next, the cultured cells were treated with each of the N-terminal fragments (SEQ ID NOS: 12, 13 and 14) and C-terminal fragment (SEQ ID NO: 15) of AIMP1 prepared in Reference Example 2 at an concentration of 100 nM for 2 hours and 6 hours, respectively. The treated cells were subjected to RT-PCR using collagen-specific primers (SEQ ID NOS: 4 and 5), KGF-specific primers (SEQ ID NOS: 8 and 9) and GADPH-specific primers (SEQ ID NOS: 6 and 7) in the same manner as in Example <1-2>.

KGF [2] = test: RT-PCR analysis of KGF expression in foreskin fibroblast cells; format: cell-based; details: for KGF synthesis (RT-PCR), deletion fragments, compared with C-terminal fragment SEQ ID NO: 15: 100 nM for 2 hours and 6 hours, FIG. 6; for synthesis of KGF (RT-PCR), AIMP1 fragments: 100 nM, 0, 1, 2, 4 and 6 hours, FIG. 5
Description: From foreskin fibroblast cells treated with 100 nM of the AIMP1 for 2 hours, the total RNA was extracted in the same manner as described in Example <1-2>. Then, the extract was amplified by RT-PCR using KGF-specific primers (SEQ ID NO: 8 and SEQ ID NO: 9). The control groups were amplified using cyclin D-specific primers (SEQ ID NO: 10 and SEQ ID NO: 11) and GADPH-specific primers (SEQ ID NO: 6 and SEQ ID NO: 7), respectively. The PCR reaction consisted of: predenaturation of the template DNA at 95° C. for 5 min, followed by 25 cycles of 1 min at 95° C., 1 min at 52° C. and 1 min at 72° C., and then, a final extension for 5 min at 72° C.
as §3, §4

collagen [3] = test: Western blot analysis of collagen (anti-collagen I antibody) in foreskin fibroblast cells; format: cell-based; details: 200 nM for 12 hours, FIG. 7
Description: as §1
The cells treated with the AIMP1 at varying AIMP1 concentrations in Example <1-1> were collected and lysed in a cell lysis buffer (50 mM HEPES, pH 7.5, 150 mM NaCl, 10% glycerol, 5 mM EGTA, 1 mM sodium orthovanadate, 10 mM NaF, 12 mM b-glycerophosphate, 1 mM DTT, 1 mM PMSF, […] aprotinin, and 1% NP40). Lysed cells were centrifuged at 26,000 g for 15 minutes and the cell extract was isolated. 30 μg of the cell extract was separated by 8% SDS-PAGE and immunoblotted with an anti-collagen I antibody (Abcam) according to any conventional method known in the art. As a control group, an anti-tubulin antibody (Sigma) was used.
as §2
Foreskin fibroblast cells (5×10^5 cells/well) were cultured in 10% serum-containing DMEM medium on a 6-well plate for 48 hours and then cultured in serum-free medium for about 3 hours. Next, the cultured cells were treated with each of the AIMP1 (SEQ ID NO: 1) and the AIMP1 N-terminal fragments (SEQ ID NOS: 2 and 12) at a concentration of 200 nM for 12 hours. As a control group, cells without treatment were used.
The cells treated with each of the AIMP1 and its N-terminal fragments and the control cells were collected at the indicated time and subjected to Western blot analysis in the same manner as in Example <1-3>.

KGF [4] = test: Activity to stimulate KGF expression (data not shown)
collagen [5] = test: Activity to stimulate collagen synthesis (data not shown)

SEQ ID NO: 13: N-terminal deletion fragment of AIMP1, amino acids 1-46 (MANNDAVLKRLEQKGAEADQIIEYLKQQVSLLKEKAILQATLREEK; PEPTIDE (1)..(46) AIMP1-(1-46); listed as Homo sapiens)
collagen synthesis (RT-PCR), deletion fragments, compared with C-terminal fragment SEQ ID NO: 15 (collagen [1]): more stimulated
KGF synthesis (RT-PCR), deletion fragments, compared with C-terminal fragment SEQ ID NO: 15 (KGF [2]): more stimulated

SEQ ID NO: 12: N-terminal deletion fragment of AIMP1, amino acids 6-46 (AVLKRLEQKGAEADQIIEYLKQQVSLLKEKAILQATLREEK; PEPTIDE (1)..(41) AIMP1-(6-46); listed as Homo sapiens)
synthesis of collagen, protein levels (Western blot), compared with cells without treatment (collagen [3]): more stimulated
collagen synthesis (RT-PCR), deletion fragments, compared with C-terminal fragment SEQ ID NO: 15 (collagen [1]): more stimulated
KGF synthesis (RT-PCR), deletion fragments, compared with C-terminal fragment SEQ ID NO: 15 (KGF [2]): more stimulated

SEQ ID NO: 14: N-terminal deletion fragment of AIMP1, amino acids 1-53 (MANNDAVLKRLEQKGAEADQIIEYLKQQVSLLKEKAILQATLREEKKLRVENA; PEPTIDE (1)..(53) AIMP1-(1-53); listed as Homo sapiens)
collagen synthesis (RT-PCR), deletion fragments, compared with C-terminal fragment SEQ ID NO: 15 (collagen [1]): more stimulated
KGF synthesis (RT-PCR), deletion fragments, compared with C-terminal fragment SEQ ID NO: 15 (KGF [2]): more stimulated

B1: C-terminal fragment: C-terminal fragment of AIMP1, amino acids 148-312 (protein, listed as Homo sapiens)
chain: KPIDVSRLDLRIGCIITARKHPDADSLYVEEVDVGEIAPRTVVSGLVNHVPLEQMQNRMVILLCNLKPAKMRGVLSQAMVMCASSPEKIEILAPPNGSVPGDRITFDAFPGEPDKELNPKKKIWEQIQPDLHTNDECVATYKGVPFEVKGKGVCRAQTMSNSGIK
modifications: PEPTIDE (1)..(165) AIMP1-(148-312)
synthesis of collagen (RT-PCR), AIMP1 fragments (collagen [1]): no significant effect
synthesis of KGF (RT-PCR), AIMP1 fragments (KGF [2]): no significant effect

B2: SEQ ID NO: 2: N-terminal fragment of AIMP1, amino acids 1-147 (protein, listed as Homo sapiens)
chain: MANNDAVLKRLEQKGAEADQIIEYLKQQVSLLKEKAILQATLREEKKLRVENAKLKKEIEELKQELIQAEIQNGVKQIAFPSGTPLHANSMVSENVIQSTAVTTVSSGTKEQIKGGTGDEKKAKEKIEKKGEKKEKKQQSIAGSADS
modifications: PEPTIDE (1)..(147) AIMP1-(1-147)
synthesis of collagen, protein levels (Western blot), compared with cells without treatment (collagen [3]): more stimulated
synthesis of collagen (RT-PCR), AIMP1 fragments (collagen [1]): stimulated
synthesis of KGF (RT-PCR), AIMP1 fragments (KGF [2]): stimulated

B3: SEQ ID NO: 27: fragment consisting of amino acids 1-192 of the AIMP1 (protein, listed as Homo sapiens)
chain: MANNDAVLKRLEQKGAEADQIIEYLKQQVSLLKEKAILQATLREEKKLRVENAKLKKEIEELKQELIQAEIQNGVKQIAFPSGTPLHANSMVSENVIQSTAVTTVSSGTKEQIKGGTGDEKKAKEKIEKKGEKKEKKQQSIAGSADSKPIDVSRLDLRIGCIITARKHPDADSLYVEEVDVGEIAPRTVVSG
modifications: PEPTIDE (1)..(192) AIMP1-(1-192)
notes: fragment consisting of amino acids 1-192 of the AIMP1
activity to stimulate KGF expression (KGF [4]): have the activity to stimulate collagen synthesis and KGF expression
activity to stimulate collagen synthesis (collagen [5]): have the activity to stimulate collagen synthesis

B4: SEQ ID NO: 28: fragment consisting of amino acids 6-192 of the AIMP1 (protein, listed as Homo sapiens)
chain: AVLKRLEQKGAEADQIIEYLKQQVSLLKEKAILQATLREEKKLRVENAKLKKEIEELKQELIQAEIQNGVKQIAFPSGTPLHANSMVSENVIQSTAVTTVSSGTKEQIKGGTGDEKKAKEKIEKKGEKKEKKQQSIAGSADSKPIDVSRLDLRIGCIITARKHPDADSLYVEEVDVGEIAPRTVVSG
modifications: PEPTIDE (1)..(187) AIMP1-(6-192)
notes: fragment consisting of amino acids 6-192 of the AIMP1
activity to stimulate KGF expression (KGF [4]): have the activity to stimulate collagen synthesis and KGF expression
activity to stimulate collagen synthesis (collagen [5]): have the activity to stimulate collagen synthesis
